Assay results from the RNAGym collection of RNA variant scans (doi:10.7554/elife.90254).

B1: OR4K15 (parent)
chain: GUUAACGGUCAUAGGCCAUGGAAACUAGGAGCACCAUUUCGCUGCCAGUGAAGAAAUGAACAAAGAAAAUCUGGGCCAGGCAGGCAUCAAAAGAAAUAGUCUUGCGCUCAACCAGAAAGUCUGUAAUCAUUUUAAGGGUA

Variants of: B1
Assay: self-cleavage, relative activity (ratio to wild type); higher = more cleavage; in vitro, sequencing; the parent is a self-cleaving ribozyme

In order of rising self-cleavage:
1. GUUAACGGUCAUAGGCCAUGGAGACUAGGAGCACCAUUUCGCUGCCAGUGAAGAAAUGAACAAAGAAAAUCUGGGCCAGGCCGGCAUCAAAAGAAAUAGUCUUGCGCUCAACCAGAAAGUCUGUAAUCAUUUUAAGGGUA  0.09
2. GUUAACGGUCAUAGGCCAUGGAGACUAGGAGCACCAUUUCGCUGCCAGUGAAGAAAUGAACAAAGAAAAUCUGGGCCAGGCAGGCAUCAAAAGAAAUAGUCUUGCGCUCCACCAGAAAGUCUGUAAUCAUUUUAAGGGUA  0.09
3. GUUAACGGUCAUAGGCCAUGGAGACUAGGAGCACCAUUUCGCUGCCAGUGAAGAAAUGAACAAAGAAAAUCUGGGCCAGGCUGGCAUCAAAAGAAAUAGUCUUGCGCUCAACCAGAAAGUCUGUAAUCAUUUUAAGGGUA  0.2
4. GUUAACGGUCAUAGGCCAUGGAGACUAGGAGCACCAUUUCGCUGCCAGUGAAGAAAUGAACAAAGAAAAUCUGGGCCAGGCAGGCAUCAAAAGAAAUGGUCUUGCGCUCAACCAGAAAGUCUGUAAUCAUUUUAAGGGUA  0.23
5. GUUAACGGUCAUAGGCCAUGGAGACUAGGAGCACCAUUUCGCUGCCAGUGAAGAAAUGAACAAAGAAAAUCUGGGCCGGGCAGGCAUCAAAAGAAAUAGUCUUGCGCUCAACCAGAAAGUCUGUAAUCAUUUUAAGGGUA  0.29
6. GUUAACGGUCAUAGGCCAUGGAGACUAGGAGCACCAUUUCGCUGCCAGUGAAGAAAUGAACAAAGAAAAUCUGGGCCAGGCAGGCAUCAAAAGAAAUAGUCUUGCGCUCAACCAGUAAGUCUGUAAUCAUUUUAAGGGUA  0.3
7. GUUAACGGUCAUAGGCCAUGGAGACUAGGAGCACCAUUUCGCUGCCAGUGAAGAAAUGAACAAAGAAAAUCUGGGCCAGGCAGGCAUCAAAAGAAAUAGUCUUGCGCUCAACCAGACAGUCUGUAAUCAUUUUAAGGGUA  0.36
8. GUUAACGGUCAUAGGCCAUGGAGACUAGGAGCACCAUUUCGCUGCCAGUGAAGAAAUGAACAAAGAAAAUCUGGGCCUGGCAGGCAUCAAAAGAAAUAGUCUUGCGCUCAACCAGAAAGUCUGUAAUCAUUUUAAGGGUA  0.36
9. GUUAACGGUCAUAGGCCAUGGAGACUAGGAGCACCAUUUCGCUGCCAGUGAAGAAAUGAACAAAGAAAAUCUGGGCCAGGCAGGCAUCAAAAGAAAUAGUCUUGCGCUCAACCAGAACGUCUGUAAUCAUUUUAAGGGUA  0.5
10. GUUAACGGUCAUAGGCCAUGGAGACUAGGAGCACCAUUUCGCUGCCAGUGAAGAAAUGAACAAAGAAAAUCUGGGCCAGGCAGGCAUCAAAAGAAAUAGUCUUGCGCUCAACCAGAUAGUCUGUAAUCAUUUUAAGGGUA  0.55
11. GUUAACGGUCAUAGGCCAUGGAGACUAGGAGCACCAUUUCGCUGCCAGUGAAGAAAUGAACAAAGAAAAUCUGGGCCAGGCAGGCAUCUAAAGAAAUAGUCUUGCGCUCAACCAGAAAGUCUGUAAUCAUUUUAAGGGUA  0.72
12. GUUAACGGUCAUAGGCCAUGGAGACUAGGAGCACCAUUUCGCUGCCUGUGAAGAAAUGAACAAAGAAAAUCUGGGCCAGGCAGGCAUCAAAAGAAAUAGUCUUGCGCUCAACCAGAAAGUCUGUAAUCAUUUUAAGGGUA  0.77
13. GUUAACGGUCAUAGGCCAUGGAGACUAGGAGCGCCAUUUCGCUGCCAGUGAAGAAAUGAACAAAGAAAAUCUGGGCCAGGCAGGCAUCAAAAGAAAUAGUCUUGCGCUCAACCAGAAAGUCUGUAAUCAUUUUAAGGGUA  0.84
14. GUUAACGGUCAUAGGCCAUGGAGACUAGGAGCACCAUUUCGCUGCCGGUGAAGAAAUGAACAAAGAAAAUCUGGGCCAGGCAGGCAUCAAAAGAAAUAGUCUUGCGCUCAACCAGAAAGUCUGUAAUCAUUUUAAGGGUA  0.86
15. GUUAACGGUCAUAGGCCAUGGAGACUAGGAGCACCAUUUCGCUGCCAGUGAAGAUAUGAACAAAGAAAAUCUGGGCCAGGCAGGCAUCAAAAGAAAUAGUCUUGCGCUCAACCAGAAAGUCUGUAAUCAUUUUAAGGGUA  0.86
16. GUUAACGGUCAUAGGCCAUGGAGACUAGGAGCACCAUUUCGCUGCCAGUGAAGAAAUGAACAAAGAAAAUCUGGGCCAGGCAGGCAUCAAAAGAAGUAGUCUUGCGCUCAACCAGAAAGUCUGUAAUCAUUUUAAGGGUA  0.92
17. GUUAACGGUCAUAGGCCAUGGAGACUAGGAGCACCAUUUCGCUGCCAGUGAAGAAAUGAACCAAGAAAAUCUGGGCCAGGCAGGCAUCAAAAGAAAUAGUCUUGCGCUCAACCAGAAAGUCUGUAAUCAUUUUAAGGGUA  0.98
18. GUUAACGGUCAUAGGCCAUGGAGACUAGGAGCACCAUUUCGCUGCCAGUGAAGAAAUGUACAAAGAAAAUCUGGGCCAGGCAGGCAUCAAAAGAAAUAGUCUUGCGCUCAACCAGAAAGUCUGUAAUCAUUUUAAGGGUA  1
19. GUUAACGGUCAUAGGCCAUGGAGACUAGGAGCACCAUUUCGCUGCCAGUGAAGAAAUGAACAGAGAAAAUCUGGGCCAGGCAGGCAUCAAAAGAAAUAGUCUUGCGCUCAACCAGAAAGUCUGUAAUCAUUUUAAGGGUA  1.01
20. GUUAACGGUCAUAGGCCAUGGAGACUAGGAGCACCAUUUCGCUGCCAGUGAAGAAAUGAACAAAGGAAAUCUGGGCCAGGCAGGCAUCAAAAGAAAUAGUCUUGCGCUCAACCAGAAAGUCUGUAAUCAUUUUAAGGGUA  1.02
21. GUUAACGGUCAUAGGCCAUGGAGACUAGGAGCACCAUUUCGCUGCCAGUGAAGAAAUGAACAAAGAAAAUCUGGGCCAGGCAGGCCUCAAAAGAAAUAGUCUUGCGCUCAACCAGAAAGUCUGUAAUCAUUUUAAGGGUA  1.06
22. GUUAACGGUCAUAGGCCAUGGAGACUAGGAGCACCAUUUCGCUGCCAGUGAAGAAAUGAACAAAGAAAUUCUGGGCCAGGCAGGCAUCAAAAGAAAUAGUCUUGCGCUCAACCAGAAAGUCUGUAAUCAUUUUAAGGGUA  1.12
23. GUUAACGGUCAUAGGCCAUGGAGACUAGGAGCACCAUUUCGCUGCCAGUGAGGAAAUGAACAAAGAAAAUCUGGGCCAGGCAGGCAUCAAAAGAAAUAGUCUUGCGCUCAACCAGAAAGUCUGUAAUCAUUUUAAGGGUA  1.13
24. GUUAACGGUCAUAGGCCAUGGAGACUAGGAGCACCAUUUCGCUGCCAGUGAAGAAGUGAACAAAGAAAAUCUGGGCCAGGCAGGCAUCAAAAGAAAUAGUCUUGCGCUCAACCAGAAAGUCUGUAAUCAUUUUAAGGGUA  1.18
25. GUUAACGGUCAUAGGCCAUGGAGACUAGGAGCACCAUUUCGCUGCCAGUGAAGAAAUGAACAAAGAAAAUCUGGGCCAGGCAGGCAUCAAACGAAAUAGUCUUGCGCUCAACCAGAAAGUCUGUAAUCAUUUUAAGGGUA  1.29
26. GUUAACGGUCAUAGGCCAUGGAGACUAGGAGCACCAUUUCGCUGCCAGUGAAGAAAUGAACAAAGAAGAUCUGGGCCAGGCAGGCAUCAAAAGAAAUAGUCUUGCGCUCAACCAGAAAGUCUGUAAUCAUUUUAAGGGUA  1.29
27. GUUAACGGUCAUAGGCCAUGGAGACUAGGAGCACCAUUUCGCUGCCAGUGGAGAAAUGAACAAAGAAAAUCUGGGCCAGGCAGGCAUCAAAAGAAAUAGUCUUGCGCUCAACCAGAAAGUCUGUAAUCAUUUUAAGGGUA  1.33
28. GUUAACGGUCAUAGGCCAUGGAGACUAGGAGCACCAUUUCGCUGCCAGUGAAGACAUGAACAAAGAAAAUCUGGGCCAGGCAGGCAUCAAAAGAAAUAGUCUUGCGCUCAACCAGAAAGUCUGUAAUCAUUUUAAGGGUA  1.33
29. GUUAACGGUCAUAGGCCAUGGAGACUAGGAGCACCAUUUCGCUGCCAGUGAAGAAAUGAACAAAGUAAAUCUGGGCCAGGCAGGCAUCAAAAGAAAUAGUCUUGCGCUCAACCAGAAAGUCUGUAAUCAUUUUAAGGGUA  1.43
30. GUUAACGGUCAUAGGCCAUGGAGACUAGGAGCACCAUUUCGCUGCCAGUGAAGUAAUGAACAAAGAAAAUCUGGGCCAGGCAGGCAUCAAAAGAAAUAGUCUUGCGCUCAACCAGAAAGUCUGUAAUCAUUUUAAGGGUA  1.5
31. GUUAACGGUCAUAGGCCAUGGAGACUAGGAGCCCCAUUUCGCUGCCAGUGAAGAAAUGAACAAAGAAAAUCUGGGCCAGGCAGGCAUCAAAAGAAAUAGUCUUGCGCUCAACCAGAAAGUCUGUAAUCAUUUUAAGGGUA  1.52
32. GUUAACGGUCAUAGGCCAUGGAGACUAGGAGCACCAUUUCGCUGCCAGUGAAGAAAUGAACAAAGAAAAUCUGGGCCAGGCAGGCAUCAAAAGUAAUAGUCUUGCGCUCAACCAGAAAGUCUGUAAUCAUUUUAAGGGUA  1.54
33. GUUAACGGUCAUAGGCCAUGGAGACUAGGAGCACCAUUUCGCUGCCAGUGAAGAAAUGAACAAAGAAAAUCUGGGCCAGGCAGGCAUCAAAAGAAAUAGUCUUGCGCUCAACCAGAAAGUCUGUAAUCAUUUUAAGGGUC  1.55
34. GUUAACGGUCAUAGGCCAUGGAGACUAGGAGCACCAUUUCGCUGCCAGUGAAGAAAUGAACAAAGAAAAUCUGGGCCAGGCAGGCAUCAAUAGAAAUAGUCUUGCGCUCAACCAGAAAGUCUGUAAUCAUUUUAAGGGUA  1.57
35. GUUAACGGUCAUAGGCCAUGGAGACUAGGAGCACCAUUUCGCUGCCAGUGAAGAAAUGAACAAAGAAAAUCUGGGCCAGGCAGGCAUCAAAAGAGAUAGUCUUGCGCUCAACCAGAAAGUCUGUAAUCAUUUUAAGGGUA  1.59
36. GUUAACGGUCAUAGGCCAUGGAGACUAGGAGCACCAUUUCGCUGCCAGUGAAGAAAUGAACAAAGAAAAUCUGGGCCAGGCAGGCAUCAAAAGAAAUAGUCUUGCGCUCAACCAGAAAGUCUGUAAUCAUUUUAAGGGUG  1.61
37. GUUAACGGUCAUAGGCCAUGGAGACUAGGAGCACCAUUUCGCUGCCAGUGAUGAAAUGAACAAAGAAAAUCUGGGCCAGGCAGGCAUCAAAAGAAAUAGUCUUGCGCUCAACCAGAAAGUCUGUAAUCAUUUUAAGGGUA  1.69
38. GUUAACGGUCAUAGGCCAUGGAGACUAGGAGCACCUUUUCGCUGCCAGUGAAGAAAUGAACAAAGAAAAUCUGGGCCAGGCAGGCAUCAAAAGAAAUAGUCUUGCGCUCAACCAGAAAGUCUGUAAUCAUUUUAAGGGUA  1.74
39. GUUAACGGUCAUAGGCCAUGGAGACUAGGAGCACCAUUUCGCUGCCAGUGAAGAAAUGAACAAAGAAAAUCUGGGCCAGGCAGGCAUCAUAAGAAAUAGUCUUGCGCUCAACCAGAAAGUCUGUAAUCAUUUUAAGGGUA  1.85
40. GUUAACGGUCAUAGGCCAUGGAGACUAGGAGCUCCAUUUCGCUGCCAGUGAAGAAAUGAACAAAGAAAAUCUGGGCCAGGCAGGCAUCAAAAGAAAUAGUCUUGCGCUCAACCAGAAAGUCUGUAAUCAUUUUAAGGGUA  1.9
41. GUUAACGGUCAUAGGCCAUGGAGACUAGGAGCACCAUUUCGCUGCCAGUGAAGAAAUGAACAAAGAAAAUCUGGGCCAGGCAGGCAUCCAAAGAAAUAGUCUUGCGCUCAACCAGAAAGUCUGUAAUCAUUUUAAGGGUA  1.98
